From patent US5352587A, “Compositions and methods for the synthesis of natriuretic protein receptor B and methods of use” (Genentech, Inc., priority 1991, dated 1994)
Ends that are not written are not given here.

What was measured:
NPRB [1] = target: T1, NPRB (Homo sapiens, UniProt P20594); experiment: Specific binding to COS-7 cells transfected with pRK-NPRB; details: Table 2, 0.5 nM, room temperature, 1 hr
T1 construct: whole cells or solubilized membranes
T1 sequence (P20594 23-1047): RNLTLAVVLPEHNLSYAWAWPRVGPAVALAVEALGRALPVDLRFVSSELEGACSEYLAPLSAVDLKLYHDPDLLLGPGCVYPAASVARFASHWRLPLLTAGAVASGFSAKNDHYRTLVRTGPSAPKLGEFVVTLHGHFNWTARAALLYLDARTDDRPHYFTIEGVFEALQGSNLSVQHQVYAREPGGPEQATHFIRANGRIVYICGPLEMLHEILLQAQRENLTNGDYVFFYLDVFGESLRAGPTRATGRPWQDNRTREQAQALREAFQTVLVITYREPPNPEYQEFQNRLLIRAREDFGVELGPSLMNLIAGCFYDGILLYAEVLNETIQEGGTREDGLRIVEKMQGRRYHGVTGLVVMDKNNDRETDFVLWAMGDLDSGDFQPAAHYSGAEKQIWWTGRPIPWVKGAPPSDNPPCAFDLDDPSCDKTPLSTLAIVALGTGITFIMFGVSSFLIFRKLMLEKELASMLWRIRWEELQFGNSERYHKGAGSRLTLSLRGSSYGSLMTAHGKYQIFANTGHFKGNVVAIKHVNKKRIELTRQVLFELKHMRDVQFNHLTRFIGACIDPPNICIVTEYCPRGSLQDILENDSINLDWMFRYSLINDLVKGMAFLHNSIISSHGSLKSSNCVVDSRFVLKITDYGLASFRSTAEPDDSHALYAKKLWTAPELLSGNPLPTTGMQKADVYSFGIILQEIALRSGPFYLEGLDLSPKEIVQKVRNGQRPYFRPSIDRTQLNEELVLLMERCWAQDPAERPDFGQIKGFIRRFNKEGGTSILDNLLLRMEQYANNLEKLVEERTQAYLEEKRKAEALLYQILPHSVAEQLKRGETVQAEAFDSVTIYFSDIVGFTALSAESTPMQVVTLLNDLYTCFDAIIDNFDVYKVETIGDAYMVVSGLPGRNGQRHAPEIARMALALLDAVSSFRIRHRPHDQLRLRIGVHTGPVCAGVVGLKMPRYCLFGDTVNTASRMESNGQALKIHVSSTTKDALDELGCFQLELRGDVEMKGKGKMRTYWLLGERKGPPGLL
Experimental: (§1) To examine the biochemical properties of the NPRB receptor, we constructed an expression vector in which the coding sequence was placed under the transcriptional control of the cytomegalovirus immediate-early promoter (Table 2). […] The NPRB expression vector was transfected into COS-2 cells in a transient expression assay and the detergent solubilized guanylyl cyclase activity of a membrane fraction was measured (Table 2). […] Specific binding of [^125 l]-human ANP (ANP) and [^125 l]-porcine BNP (pBNP) to transfected cells was determined in the presence of absence of unlabeled peptides.
(§2) COS-7 cells maintained in Dulbecco's modified Eagles' medium (DMEM) supplemented with 10% fetal calf serum were seeded at 5×10^6 cells per 100 mm plate (GC assay) or 1×10^5 per 35 mm plate (binding assay). Twelve house later, cells were transfected with control vector^5 (1 mg/ml) using DEAE-dextran.
(§3) Following the incubation, cells were rinsed with cold PBS, and dissolved in 2 ml of 0.2M NaOH and radioactivity was measured in gamma counter. All measurements were in triplicate. […] Specific binding in table 2 was calculated by subtracting the background binding from the total binding.

NPRA = target: T2, NPRA (Homo sapiens, UniProt P16066); experiment: Specific binding to COS-7 cells transfected with pRK-NPRA; details: Table 2, 0.5 nM, room temperature, 1 hr
T2 construct: whole cells or solubilized membranes
T2 sequence (P16066 33-1061): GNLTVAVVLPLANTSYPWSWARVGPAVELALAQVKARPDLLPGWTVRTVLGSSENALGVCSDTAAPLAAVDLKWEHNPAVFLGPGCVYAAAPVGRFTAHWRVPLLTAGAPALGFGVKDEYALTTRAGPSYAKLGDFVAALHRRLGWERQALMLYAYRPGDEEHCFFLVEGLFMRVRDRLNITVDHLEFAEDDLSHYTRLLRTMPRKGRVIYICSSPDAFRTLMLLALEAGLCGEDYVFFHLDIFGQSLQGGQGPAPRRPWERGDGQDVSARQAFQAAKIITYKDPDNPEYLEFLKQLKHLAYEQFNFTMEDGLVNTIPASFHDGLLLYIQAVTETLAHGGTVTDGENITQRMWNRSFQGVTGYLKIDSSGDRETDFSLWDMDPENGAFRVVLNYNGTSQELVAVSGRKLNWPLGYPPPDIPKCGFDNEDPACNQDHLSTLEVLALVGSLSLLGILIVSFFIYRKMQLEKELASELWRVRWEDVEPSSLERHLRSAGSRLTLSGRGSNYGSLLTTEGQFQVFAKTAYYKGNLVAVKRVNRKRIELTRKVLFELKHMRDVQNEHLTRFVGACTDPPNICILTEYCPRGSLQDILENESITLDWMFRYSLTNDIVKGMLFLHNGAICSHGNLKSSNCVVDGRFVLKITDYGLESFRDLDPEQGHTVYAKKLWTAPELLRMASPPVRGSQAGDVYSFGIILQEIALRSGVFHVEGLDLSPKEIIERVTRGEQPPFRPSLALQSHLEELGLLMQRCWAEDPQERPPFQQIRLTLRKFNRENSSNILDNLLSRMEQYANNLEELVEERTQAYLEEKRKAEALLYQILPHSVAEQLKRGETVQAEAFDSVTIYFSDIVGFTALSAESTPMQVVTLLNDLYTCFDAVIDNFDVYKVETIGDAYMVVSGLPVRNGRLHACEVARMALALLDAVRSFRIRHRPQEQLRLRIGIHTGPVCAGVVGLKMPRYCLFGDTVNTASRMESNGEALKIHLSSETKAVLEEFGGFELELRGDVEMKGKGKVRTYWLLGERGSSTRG
Experimental: as §1, §2, §3

NPRB [2] = target: T1, NPRB; experiment: Transient expression whole-cell stimulation of cGMP production, NPRB-transfected COS-7 cells; assay type: cell-based
Experimental: Ligand-dependent activation of the cytoplasmic guanylyl cyclase (GC) domains of the human NPRB and NPRA receptors was examined in transient expression whole-cell stimulation assays. In FIG. 3, the natriuretic peptide stimulation of cGMP production is shown. COS-7 cells transfected with pRK (control; pane C), human NPRA expression vector^5 (panel A), or human NPRB receptor expression vector (panel B) were either not treated (panel C) or stimulated with 500 nM porcine BNP (BNP) or human ANP (ANP) for 5 minutes. Results are expressed as the mean amount of cGMP (pmoles) per culture±standard deviation for 3 independent determinations.
The COS-7 cells were seeded at a density of 1×10^6 cells per well in a 60 mm plate with high glucose DMEM plus 10% heat inactivated dialyzed calf serum and maintained for 12 hours at 37° C. in 7%, 93% air. […] of plasmid DNA was transfected with […] of DEAE-dextran in 2 ml of high glucose DMEM±10% Nuserum (Gibco) for 4 hours. Cells were shocked with 20% glycerol in PBS for 1 minute, fresh medium was added and cells were maintained for 72 hours prior to stimulation. Non-treated cultures were incubated at 37° C. in DMEM with 25 mM Hepes pH 7.2, […] IBMX at 37° C. for 10 minutes, medium was aspirated and 6% trichloroacetic acid (TCA) was added. Stimulated samples were treated for an additional 5 minutes in the presence of 500 nM peptide before TCA treatment. Samples were frozen at -20° C. for 1 hr, thawed at room temperature, and cell debris was removed by centrifugation at 2500 xg for 10 minutes. Samples were extracted once with 4 volumes of water-saturated ether, briefly evaporated and assayed for cGMP as described in Table 2.

guanylyl cyclase = experiment: Detergent-solubilized membrane (particulate) guanylyl cyclase activity of transfected COS cells; assay type: biochemical, human; details: for guanylyl cyclase specific activity, fold higher than control cells: COS-2 cells, membrane fraction; for Guanylyl Cyclase Activity: Table 2, transfected COS-7 cells, mean ± standard deviation of triplicate determinations
Experimental: To examine the biochemical properties of the NPRB receptor, we constructed an expression vector in which the coding sequence was placed under the transcriptional control of the cytomegalovirus immediate-early promoter (Table 2). The vector pRK is disclosed in EP 307,247, published Mar. 15, 1989. The NPRB expression vector was transfected into […] in a transient expression assay and the detergent solubilized guanylyl cyclase activity of a membrane fraction was measured (Table 2). Cells transfected with the NPRB expression vector has about eleven-fold higher guanylyl cyclase specific activity that control cells, while cells transfected with an NPRA receptor expression vector^5 using pRK has a six-fold higher guanylyl cyclase specific activity. Specific binding of [^125 l]-human ANP (ANP) and [^125 l]-porcine BNP (pBNP) to transfected cells was determined in the presence of absence of unlabeled peptides.
as §2, with “DEAE-dextran. The vector pRK-NPRBR contained nucleotides 253 to 3470 (FIG. 1) of the NPRB receptor in the expression vector pRK5 under the control of the cytomegalovirus immediate early promoter.” for “DEAE-dextran.”
Guanylate cyclase activity was determined forty-eight hours after transfection, the cells were washed with phosphate buffer saline (PBS), scraped into 4 ml PBS and homogenized with 40 strokes of a Dounce homogenizer at 0° C. Nuclei were pelleted and the supernatant was centrifuged at 100,000 xg for 30 minutes in SW 55- Ti rotor to obtain a membrane pellet. Membrane proteins were solubilized by incubation or ice for 10 minutes in solution containing 20 mM Hepes, pH 7.4, 200 mM NaCl, 10% glycerol, 1% Triton X-100 and 1 mM dithiothreitol. Protein concentrations were measured by a dye binding assay (BioRad). Gyanylate cyclase reactions contained […] of membrane proteins in […] of 20 mM Hepes pH 7.4, 30 units of creatine phosphokinase, 1 mM GTP, 4 mM MnCl2 and 0.5 mM isobutyl methylxanthine (IBMX). After incubation at 37° C. for 10 minutes the reaction was stopped by addition of […] of 50 mM acetic acid (pH 6.2) and boiled for 3 min. Aliquots were analyzed for cGMP after acetylation with 1/20 volume of acetic anhydride/triethylamine (1:2) then radioimmuno-assay (Biomedical Technologies, Inc.). Results are expressed in Table 2 as the mean±standard deviation of triplicate determinations.

Question: Which results are given for “[^125 l]-pBNP: [^125 l]-porcine BNP (600 Ci/mmol) (DSGCFGRRLDRIGSLSGLGCNVLRRY; ends and bridges not checked; also: 125I label, position not given here; UniProt P07634 106-131, looked up)”?
Answer: Specific Binding of [^125 l]-pBNP (NPRB [1]): 3,643 ± 26 cpm; Specific Binding of [^125 l]-pBNP (NPRA): 5,721 ± 1107 cpm

Question: What does the source list for “pBNP: porcine BNP (brain natriuretic peptide) (DSGCFGRRLDRIGSLSGLGCNVLRRY; ends and bridges not checked; cysteine pairing not given here; UniProt P07634 106-131, looked up)”?
Answer: fold increase in cGMP over control transfected cells (NPRB [2]; NPRB, 500 nM peptide, 5 minutes): 9.7 fold; fold more effective than ANP in the activation of NPRB GC activity (NPRB [2]; NPRB, 500 nM peptide, 5 minutes, versus ANP): 6.4 fold; activation of NPRB receptor (in words) (NPRB [2]; pBNP as compared to human ANP): preferentially activated

Question: How did the “guanylyl cyclase specific activity, fold higher than control cells” value (guanylyl cyclase) turn out when “NPRA: 120-140 kd NPRA receptor, a membrane form of guanylyl cyclase” was run?
Answer: The value was “six”.

Question: And the “Guanylyl Cyclase Activity” value (guanylyl cyclase)?
Answer: Its value is 1.91 ± 0.01 pmole cGMP/min/mg protein.

Question: Which “Specific Binding of [^125 l]-ANP” value (NPRB [1]) does the source give for “[^125 l]-ANP: [^125 l]-human ANP (1800 Ci/mmole, Amersham)” here?
Answer: The value was 10,694 ± 1412 cpm.

B1: NPRB: human natriuretic peptide receptor B having the sequence of FIG. 1, expressed from pRK vector (protein, UniProt P20594 23-1047, looked up)
Atrial natriuretic peptide …: RNLTLAVVLPEHNLSYAWAWPRVGPAVALAVEALGRALPVDLRFVSSELEGACSEYLAPLSAVDLKLYHDPDLLLGPGCVYPAASVARFASHWRLPLLTAGAVASGFSAKNDHYRTLVRTGPSAPKLGEFVVTLHGHFNWTARAALLYLDARTDDRPHYFTIEGVFEALQGSNLSVQHQVYAREPGGPEQATHFIRANGRIVYICGPLEMLHEILLQAQRENLTNGDYVFFYLDVFGESLRAGPTRATGRPWQDNRTREQAQALREAFQTVLVITYREPPNPEYQEFQNRLLIRAREDFGVELGPSLMNLIAGCFYDGILLYAEVLNETIQEGGTREDGLRIVEKMQGRRYHGVTGLVVMDKNNDRETDFVLWAMGDLDSGDFQPAAHYSGAEKQIWWTGRPIPWVKGAPPSDNPPCAFDLDDPSCDKTPLSTLAIVALGTGITFIMFGVSSFLIFRKLMLEKELASMLWRIRWEELQFGNSERYHKGAGSRLTLSLRGSSYGSLMTAHGKYQIFANTGHFKGNVVAIKHVNKKRIELTRQVLFELKHMRDVQFNHLTRFIGACIDPPNICIVTEYCPRGSLQDILENDSINLDWMFRYSLINDLVKGMAFLHNSIISSHGSLKSSNCVVDSRFVLKITDYGLASFRSTAEPDDSHALYAKKLWTAPELLSGNPLPTTGMQKADVYSFGIILQEIALRSGPFYLEGLDLSPKEIVQKVRNGQRPYFRPSIDRTQLNEELVLLMERCWAQDPAERPDFGQIKGFIRRFNKEGGTSILDNLLLRMEQYANNLEKLVEERTQAYLEEKRKAEALLYQILPHSVAEQLKRGETVQAEAFDSVTIYFSDIVGFTALSAESTPMQVVTLLNDLYTCFDAIIDNFDVYKVETIGDAYMVVSGLPGRNGQRHAPEIARMALALLDAVSSFRIRHRPHDQLRLRIGVHTGPVCAGVVGLKMPRYCLFGDTVNTASRMESNGQALKIHVSSTTKDALDELGCFQLELRGDVEMKGKGKMRTYWLLGERKGPPGLL
Question: Which “guanylyl cyclase specific activity, fold higher than control cells” value (guanylyl cyclase) does the source give for B1 here?
Answer: The value was “about eleven”.

Question: What about the “Guanylyl Cyclase Activity” value (guanylyl cyclase) of the same molecule?
Answer: Its value is 3.50 ± 0.01 pmole cGMP/min/mg protein.
